Article doi:10.1101/2024.10.16.618688
Values joined by “and” are separate entries in the source; they are usually repeats but may differ in a detail not shown here. Equal entries are not always repeated.

Columns and labels:
[1] = biological target: full-length neuroligin 2 (NL2), wild type (mouse) (UniProt Q69ZK9); assay: cryo-EM structure
[2] = biological target: NRX1β ECD (aa 81 - 311) labeled with Alexa Fluorophore 488 (mouse) (UniProt P0DI97); assay: fluorescence polarisation

stoichiometry N [1]	Kd [2]	stoichiometry N (NRX1β per NL2 dimer) [1]	Substance
2	6 µM	–	full-length neuroligin 2 (NL2), wild type (from UniProt Q69ZK9 15-836) (natural protein)
–	0.3 µM	–	NL2 H279Y G282K mutant (from UniProt Q69ZK9 170-836) (natural protein)
–	–	2 and 1	full-length neurexin 1β (NRX1β), wild type (from UniProt P0DI97 47-468) (natural protein)
